Test results reported in patent publication US20040086502A1 (Genentech, published 2004).

Tests used:
[1] = target: T1, VEGF(8-109) (UniProt P15692 214-315); test: SPR (BIACORE-2000), Fab injected over immobilised VEGF(8-109), 25 C
T1 construct: range 8-109; Covalently coupled to the BIACORE chip (EDC/NHS); also called vascular endothelial growth factor
T1 sequence (looked up): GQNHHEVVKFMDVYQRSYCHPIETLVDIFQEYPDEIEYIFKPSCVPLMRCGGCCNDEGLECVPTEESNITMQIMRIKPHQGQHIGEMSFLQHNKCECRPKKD
Description: (§1) BIACORE™ Analysis: The VEGF-binding affinities of Fab fragments were calculated from association and dissociation rate constants measured using a BIACORE™-2000 surface plasmon resonance system (BIACORE™, Inc., Piscataway, N.J.). A biosensor chip was activated for covalent coupling of VEGF using N-ethyl-N′-(3-dimethylaminopropyl)-carbodiimide hydrochloride (EDC) and N-hydroxysuccinimide (NHS) according to the supplier's (BIACORE™, Inc., Piscataway, N.J.) instructions. VEGF(8-109) was buffered exchanged into 20 mM sodium acetate, pH 4.8 and diluted to approximately 50 μg/mL. Aliquots of VEGF were injected at a flow rate of 2 μL/min to achieve approximately 700-1400 response units (RU) of coupled protein. A solution of 1 M ethanolamine was injected as a blocking agent.
(§2) For kinetics measurements, two-fold serial dilutions of Fab were injected in PBS/TWEEN buffer (0.05% TWEEN 20™ in phosphate buffered saline) at 25° C. at a flow rate of 10 μL/min. Equilibrium dissociation constants, Kd's from SPR measurements were calculated as koff/kon (Table 17).

[2] = target: T1, VEGF(8-109); test: SPR (BIACORE-2000); reference (wt) is Y0192
Description: as §1, §2

[3] = target: T1, VEGF(8-109); test: SPR (BIACORE-2000), Kd calculated as koff/kon
Description: as §1, §2

[4] = target: T2, VEGF (recombinant; version 1-165) (UniProt P15692 27-191); test: cell-based or functional assay
T2 sequence (P15692 other isoform, or with tags, fused parts or gaps limits assumed): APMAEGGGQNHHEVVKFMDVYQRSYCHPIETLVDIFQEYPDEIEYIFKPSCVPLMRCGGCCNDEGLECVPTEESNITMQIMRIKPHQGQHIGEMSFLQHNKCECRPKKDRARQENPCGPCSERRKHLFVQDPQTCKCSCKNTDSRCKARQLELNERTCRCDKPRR

[5] = target: T2, VEGF (recombinant; version 1-165); test: cell-based or functional assay; remark: listed apart in the source

Row | Binder | koff [1] | kon [1] | Kd(wt)/Kd(mut) [2] | Kd [3] | IC50 (read off the curve); VEGF-induced HuVEC growth, alamar blue [4] | inhibition of VEGF-induced growth of HuVECs (alamar blue assay) [5]
1 | Y0239-19 Fab (Fab, V domains shown, also called insertion variant with the VNERK motif) VH: EVQLVESGGGLVQPGGSLRLSCAASGYTFTNYGMNWVRQAPGKGLEWVGWINTYTGEPTYAADFKRRFTFSLDTSKSTAYLQMNSLRAEDTAVYYCAKYPHYYVNERKSHWYFDVWGQGTL VL: DIQLTQSPSSLSASVGDRVTITCRANEQLSNYLNWYQQKPGKAPKVLIYFTSSLHSGVPSRFSGSGSGTDFTLTISSLQPEDFATYYCQQYSTVPWTFGQGTKVEIKR | ≤ 1e-05 s⁻¹ | 36000 M⁻¹ s⁻¹ | 9.7 ratio | ≤ 0.3 nM |  | 
2 | Y0239-9 Fab (Fab, V domains shown, Only three residues stand in place of G104, although the library was designed with four or five) VH: EVQLVESGGGLVQPGGSLRLSCAASGYTFTNYGMNWVRQAPGKGLEWVGWINTYTGEPTYAADFKRRFTFSLDTSKSTAYLQMNSLRAEDTAVYYCAKYPHYYLGESSHWYFDVWGQGTL VL: DIQLTQSPSSLSASVGDRVTITCRANEQLSNYLNWYQQKPGKAPKVLIYFTSSLHSGVPSRFSGSGSGTDFTLTISSLQPEDFATYYCQQYSTVPWTFGQGTKVEIKR | 1.9e-05 s⁻¹ | 39700 M⁻¹ s⁻¹ | 6 ratio | 0.5 nM |  | 
3 | Y0239-8 Fab (Fab, V domains shown) VH: EVQLVESGGGLVQPGGSLRLSCAASGYTFTNYGMNWVRQAPGKGLEWVGWINTYTGEPTYAADFKRRFTFSLDTSKSTAYLQMNSLRAEDTAVYYCAKYPHYYLRDGRSSHWYFDVWGQGTL VL: DIQLTQSPSSLSASVGDRVTITCRANEQLSNYLNWYQQKPGKAPKVLIYFTSSLHSGVPSRFSGSGSGTDFTLTISSLQPEDFATYYCQQYSTVPWTFGQGTKVEIKR | 1.8e-05 s⁻¹ | 38000 M⁻¹ s⁻¹ | 5.8 ratio | 0.5 nM |  | 
4 | Y0240-1 Fab (Fab, V domains shown) VH: EVQLVESGGGLVQPGGSLRLSCAASGYTFTNYGMNWVRQAPGKGLEWVGWINTYTGEPTYAADFKRRFTFSLDTSKSTAYLQMNSLRAEDTAVYYCAKYPHYYLTDHKSHWYFDVWGQGTL VL: DIQLTQSPSSLSASVGDRVTITCRANEQLSNYLNWYQQKPGKAPKVLIYFTSSLHSGVPSRFSGSGSGTDFTLTISSLQPEDFATYYCQQYSTVPWTFGQGTKVEIKR | 1.3e-05 s⁻¹ | 25000 M⁻¹ s⁻¹ | 5.8 ratio | 0.5 nM |  | 
5 | Y0261-6 Fab (Fab, V domains shown) VH: EVQLVESGGGLVQPGGSLRLSCAASGYTFTNYGMNWVRQAPGKGLEWVGWINTYTGEPTYAADFKRRFTFSLDTSKSTAYLQMNSLRAEDTAVYYCAKYPHYYLKDKKSHWYFDVWGQGTL VL: DIQLTQSPSSLSASVGDRVTITCRANEQLSNYLNWYQQKPGKAPKVLIYFTSSLHSGVPSRFSGSGSGTDFTLTISSLQPEDFATYYCQQYSTVPWTFGQGTKVEIKR | 2.5e-05 s⁻¹ | 44000 M⁻¹ s⁻¹ | 5 ratio | 0.6 nM |  | 
6 | Y0313-2 Fab (Fab, V domains shown, Combines the CDR H3 insertion of Y0239-19 (VNERK) with T28D/N31H; also called CDR combination variant Y0313-2; Insert-Fab Y0313-2) VH: EVQLVESGGGLVQPGGSLRLSCAASGYDFTHYGMNWVRQAPGKGLEWVGWINTYTGEPTYAADFKRRFTFSLDTSKSTAYLQMNSLRAEDTAVYYCAKYPHYYVNERKSHWYFDVWGQGTL VL: DIQLTQSPSSLSASVGDRVTITCRANEQLSNYLNWYQQKPGKAPKVLIYFTSSLHSGVPSRFSGSGSGTDFTLTISSLQPEDFATYYCQQYSTVPWTFGQGTKVEIKR | 1.1e-05 s⁻¹ | 31100 M⁻¹ s⁻¹ | 8 ratio | 0.36 nM | ~3 ng/mL | ~100 fold
7 | Y0239-2 Fab (Fab, V domains shown) VH: EVQLVESGGGLVQPGGSLRLSCAASGYTFTNYGMNWVRQAPGKGLEWVGWINTYTGEPTYAADFKRRFTFSLDTSKSTAYLQMNSLRAEDTAVYYCAKYPHYYKNDKSSHWYFDVWGQGTL VL: DIQLTQSPSSLSASVGDRVTITCRANEQLSNYLNWYQQKPGKAPKVLIYFTSSLHSGVPSRFSGSGSGTDFTLTISSLQPEDFATYYCQQYSTVPWTFGQGTKVEIKR | 0.000164 s⁻¹ | 36000 M⁻¹ s⁻¹ | 0.6 ratio | 4.6 nM |  | 
8 | Y0241-6 Fab (Fab, V domains shown, Clone from library YC-86, made on the Y0192 template; The text names point mutations only at T28 and F29; The printed stretch ends in GIN, so residue 34 may also differ from the parent; this change is not applied here) VH: EVQLVESGGGLVQPGGSLRLSCAASGYDYTNYGINWVRQAPGKGLEWVGWINTYTGEPTYAADFKRRFTFSLDTSKSTAYLQMNSLRAEDTAVYYCAKYPHYYGSSHWYFDVWGQGTL VL: DIQLTQSPSSLSASVGDRVTITCRANEQLSNYLNWYQQKPGKAPKVLIYFTSSLHSGVPSRFSGSGSGTDFTLTISSLQPEDFATYYCQQYSTVPWTFGQGTKVEIKR | 0.000129 s⁻¹ | 47000 M⁻¹ s⁻¹ | 1.1 ratio | 2.7 nM |  | 
9 | Y0241-7 Fab (Fab, V domains shown, Clone from library YC-86, made on the Y0192 template; The text names point mutations only at T28 and F29; The printed stretch ends in GIN, so residue 34 may also differ from the parent; this change is not applied here) VH: EVQLVESGGGLVQPGGSLRLSCAASGYDWTNYGINWVRQAPGKGLEWVGWINTYTGEPTYAADFKRRFTFSLDTSKSTAYLQMNSLRAEDTAVYYCAKYPHYYGSSHWYFDVWGQGTL VL: DIQLTQSPSSLSASVGDRVTITCRANEQLSNYLNWYQQKPGKAPKVLIYFTSSLHSGVPSRFSGSGSGTDFTLTISSLQPEDFATYYCQQYSTVPWTFGQGTKVEIKR | 0.000128 s⁻¹ | 46000 M⁻¹ s⁻¹ | 1 ratio | 3 nM |  | 
10 | Y0239-12 Fab (Fab, V domains shown) VH: EVQLVESGGGLVQPGGSLRLSCAASGYTFTNYGMNWVRQAPGKGLEWVGWINTYTGEPTYAADFKRRFTFSLDTSKSTAYLQMNSLRAEDTAVYYCAKYPHYYAHEKKSHWYFDVWGQGTL VL: DIQLTQSPSSLSASVGDRVTITCRANEQLSNYLNWYQQKPGKAPKVLIYFTSSLHSGVPSRFSGSGSGTDFTLTISSLQPEDFATYYCQQYSTVPWTFGQGTKVEIKR | 3.4e-05 s⁻¹ | 57000 M⁻¹ s⁻¹ | 4.8 ratio | 0.6 nM |  | 
11 | Y0242-1 Fab (Fab, V domains shown, Clone from library YC-90, made on the Y0192 template; also called point mutant Y54W) VH: EVQLVESGGGLVQPGGSLRLSCAASGYTFTNYGMNWVRQAPGKGLEWVGWINTWTGEPTYAADFKRRFTFSLDTSKSTAYLQMNSLRAEDTAVYYCAKYPHYYGSSHWYFDVWGQGTL VL: DIQLTQSPSSLSASVGDRVTITCRANEQLSNYLNWYQQKPGKAPKVLIYFTSSLHSGVPSRFSGSGSGTDFTLTISSLQPEDFATYYCQQYSTVPWTFGQGTKVEIKR | 8.6e-05 s⁻¹ | 47000 M⁻¹ s⁻¹ | 1.6 ratio | 1.8 nM |  | 
